Data from paper PMC4470041.

Target: CCR5 expressed in HEK 293T cells (HEK-CCR5 cells) (UniProt P51681)
Test: radioligand binding

Sequence of UniProt P51681 (P51681 whole entry): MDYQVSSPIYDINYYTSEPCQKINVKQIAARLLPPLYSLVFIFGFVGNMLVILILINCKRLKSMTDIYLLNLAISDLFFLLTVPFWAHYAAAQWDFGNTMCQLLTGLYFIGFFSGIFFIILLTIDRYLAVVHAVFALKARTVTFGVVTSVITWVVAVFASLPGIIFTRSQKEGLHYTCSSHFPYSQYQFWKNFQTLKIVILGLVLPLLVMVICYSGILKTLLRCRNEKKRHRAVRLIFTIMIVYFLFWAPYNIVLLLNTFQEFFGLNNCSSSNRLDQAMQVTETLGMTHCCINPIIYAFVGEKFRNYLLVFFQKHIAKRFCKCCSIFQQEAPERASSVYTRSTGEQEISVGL

“gp120 from the R5 HIV-1 primary strain Bx08 (natural protein)” was tested, and the Ki was 6.3 nM.
